In patent US20230416798A1 (MBRACE THERAPEUTICS, published 2023):

What was measured:
Assay in all cases: alanine scan, high-throughput flow cytometry; criterion for major residues
[1] = target: T1, GRP78 alanine scan variant at R279 (human, UniProt P11021 19-654)
T1 construct: Member of the alanine scan library of GRP78
Protocol: (§1) To characterize the binding properties of the antibodies described in Example 1 for GRP78, epitope mapping analysis was carried out by alanine scan mutagenesis. An alanine scan library of GRP78 was constructed. Each anti-GRP78 antibody was then screened for binding to each individual GRP78 variant, allowing identification of the target protein residues involved in antibody binding.
(§2) Binding of each test antibody to each GRP78 variant in the alanine scanning library was determined by high-throughput flow cytometry under high stringency conditions (e.g., increased pH, increased salinity, increased temperature and/or increased wash time). Also included in the experiment was a commercially-available monoclonal antibody, 1H11-1H7, which was verified to bind to WT GFR78 on cells and thus determined to be a suitable positive control under these conditions (Thermo Fisher Scientific, Waltham, MA). Antibody binding to each of the GRP78 variant as measured by the fluorescence signal (raw fluorescence data minus the background), was normalized to its binding to the wildtype (WT) GRP78. For each GRP78 variant, such normalized binding to the test antibodies was plotted relative to that to the control antibody.

[2] = target: T2, GRP78 alanine scan variant at R261 (human, UniProt P11021 19-654)
T2 construct: Member of the alanine scan library of GRP78
T2 sequence (P11021 other isoform, or with tags, fused parts or gaps mutant limits assumed): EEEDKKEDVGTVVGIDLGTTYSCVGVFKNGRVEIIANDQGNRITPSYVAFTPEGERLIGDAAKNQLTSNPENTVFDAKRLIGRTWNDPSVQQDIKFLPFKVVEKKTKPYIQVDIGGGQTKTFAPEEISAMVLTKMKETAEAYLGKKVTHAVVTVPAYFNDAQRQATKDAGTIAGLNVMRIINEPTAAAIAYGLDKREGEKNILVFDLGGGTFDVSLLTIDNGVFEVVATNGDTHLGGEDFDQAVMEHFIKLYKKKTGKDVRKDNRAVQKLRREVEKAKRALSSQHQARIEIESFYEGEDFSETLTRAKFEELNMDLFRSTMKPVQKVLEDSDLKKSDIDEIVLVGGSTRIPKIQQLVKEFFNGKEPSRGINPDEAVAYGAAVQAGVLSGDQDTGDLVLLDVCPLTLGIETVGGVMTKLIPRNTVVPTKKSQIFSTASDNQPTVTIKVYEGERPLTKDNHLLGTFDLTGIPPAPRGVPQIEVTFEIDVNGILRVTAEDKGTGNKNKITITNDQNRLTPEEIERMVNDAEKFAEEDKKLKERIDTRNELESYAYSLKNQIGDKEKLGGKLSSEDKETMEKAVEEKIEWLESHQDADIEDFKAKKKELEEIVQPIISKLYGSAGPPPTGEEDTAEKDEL
Protocol: as §1, §2

[3] = target: T3, GRP78 alanine scan variant at H265 (human, UniProt P11021 19-654)
T3 construct: Member of the alanine scan library of GRP78
T3 sequence (P11021 other isoform, or with tags, fused parts or gaps mutant limits assumed): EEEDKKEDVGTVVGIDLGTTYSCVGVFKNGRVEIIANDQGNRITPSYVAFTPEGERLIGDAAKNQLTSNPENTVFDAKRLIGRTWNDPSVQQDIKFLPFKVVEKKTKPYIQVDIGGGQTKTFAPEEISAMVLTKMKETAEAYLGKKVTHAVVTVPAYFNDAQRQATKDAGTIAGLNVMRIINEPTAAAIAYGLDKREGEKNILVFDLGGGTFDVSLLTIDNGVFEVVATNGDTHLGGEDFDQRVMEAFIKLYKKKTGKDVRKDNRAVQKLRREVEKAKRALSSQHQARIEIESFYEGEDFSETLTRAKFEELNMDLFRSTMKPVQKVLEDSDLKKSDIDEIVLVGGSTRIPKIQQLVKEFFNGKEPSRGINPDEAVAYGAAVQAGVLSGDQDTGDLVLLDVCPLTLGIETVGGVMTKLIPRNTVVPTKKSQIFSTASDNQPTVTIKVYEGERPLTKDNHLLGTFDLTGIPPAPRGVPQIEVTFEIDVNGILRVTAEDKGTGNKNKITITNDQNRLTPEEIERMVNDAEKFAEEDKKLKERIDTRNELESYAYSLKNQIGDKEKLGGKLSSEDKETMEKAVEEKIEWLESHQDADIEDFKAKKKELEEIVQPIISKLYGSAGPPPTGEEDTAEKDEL
Protocol: as §1, §2

[4] = target: T4, GRP78 alanine scan variant at E329 (human, UniProt P11021 19-654)
T4 construct: Member of the alanine scan library of GRP78
T4 sequence (P11021 other isoform, or with tags, fused parts or gaps mutant limits assumed): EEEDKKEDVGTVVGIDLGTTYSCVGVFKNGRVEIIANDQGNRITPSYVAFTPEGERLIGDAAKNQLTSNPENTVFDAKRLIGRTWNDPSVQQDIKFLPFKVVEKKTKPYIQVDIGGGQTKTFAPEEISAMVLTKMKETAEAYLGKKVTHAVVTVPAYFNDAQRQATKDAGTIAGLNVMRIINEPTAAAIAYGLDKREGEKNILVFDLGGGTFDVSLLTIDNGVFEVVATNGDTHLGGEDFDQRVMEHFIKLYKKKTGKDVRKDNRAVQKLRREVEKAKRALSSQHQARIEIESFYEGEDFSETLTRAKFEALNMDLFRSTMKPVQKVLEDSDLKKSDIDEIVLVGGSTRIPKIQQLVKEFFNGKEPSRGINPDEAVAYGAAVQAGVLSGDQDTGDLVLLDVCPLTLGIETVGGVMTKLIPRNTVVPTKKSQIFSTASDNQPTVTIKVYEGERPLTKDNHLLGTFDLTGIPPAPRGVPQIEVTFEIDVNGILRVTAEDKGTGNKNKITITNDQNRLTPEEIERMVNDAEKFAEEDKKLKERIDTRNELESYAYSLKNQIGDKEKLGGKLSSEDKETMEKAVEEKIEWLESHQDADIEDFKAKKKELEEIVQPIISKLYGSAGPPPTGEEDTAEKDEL
Protocol: as §1, §2

T1 sequence (P11021 other isoform, or with tags, fused parts or gaps mutant limits assumed): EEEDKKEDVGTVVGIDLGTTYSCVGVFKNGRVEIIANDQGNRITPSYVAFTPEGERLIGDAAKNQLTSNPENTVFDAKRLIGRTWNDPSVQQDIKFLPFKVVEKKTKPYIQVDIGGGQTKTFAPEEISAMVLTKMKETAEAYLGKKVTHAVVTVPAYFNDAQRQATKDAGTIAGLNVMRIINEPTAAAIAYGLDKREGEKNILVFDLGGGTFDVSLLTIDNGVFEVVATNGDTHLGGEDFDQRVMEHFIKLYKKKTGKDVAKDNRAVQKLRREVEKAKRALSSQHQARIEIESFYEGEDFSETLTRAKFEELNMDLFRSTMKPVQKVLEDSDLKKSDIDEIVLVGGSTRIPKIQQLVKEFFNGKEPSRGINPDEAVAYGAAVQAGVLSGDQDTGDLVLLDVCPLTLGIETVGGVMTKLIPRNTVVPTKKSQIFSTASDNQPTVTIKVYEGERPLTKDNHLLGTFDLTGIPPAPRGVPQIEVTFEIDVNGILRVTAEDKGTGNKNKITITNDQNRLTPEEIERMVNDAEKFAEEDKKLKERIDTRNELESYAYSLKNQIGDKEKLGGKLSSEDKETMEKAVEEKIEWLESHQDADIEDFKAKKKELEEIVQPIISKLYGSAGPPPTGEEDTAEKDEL

B1: anti-GRP78 antibody clone F6 (antibody, IgG1, V domains shown)
VH: QVQLQQSGPGLVKPPQTLSLTCAISGDSVSSNSAAWNWIRQSPSRGLEWLGRTYYRSKWYNDYAVSVKSRITINPDTSKNQFSLQLNSVTPEDTAVYYCARDPYYYDSSGYYYFDAFDIWGQGTMVTVSS
VL: SYELTQPHSVSVAPGQTARITCGGDNIGSKSVHWYQQRPGQAPVLVVYDDSDRPSGIPERFSGSNSENTATLTISGVEAGDEADYYCQVWDSTSHHVVFGGGTKLTVL
notes: Fully human mAb formatted as full-length IgG1; also called F6 mAb; Anti-GRP78 (F6)
With B1 the “binding normalized to wildtype (WT) GRP78” value (from here on “binding normalized”) [1] was under 20% and the “binding normalized” value [2] was under 20%.

B2: anti-GRP78 antibody clone B4 (antibody, IgG1, V domains shown)
VH: QVRLQESGPGLVKPSQTLSLTCTVSGGSISSGGYYWSWIRQHPGKGLEWIGYIYYSGSTYYNPSLESRVTISVDTSKNQFSLKLSSVTAADTAVYYCARYSSIDAFEIWGQGTMVTVSS
VL: SYVLTQPPSVSVAPGKTATITCGGDDIGSKSVHWYQQKPGQAPVLVVYDDGDRPSGIPERFSGSNSGNTATLAISRVEAGDEADYYCQVWDSSSDQYVFGSGTKLTVL
notes: Fully human mAb formatted as full-length IgG1; also called B4 mAb
For B2, the “binding normalized” value [2] was under 20%, the “binding normalized” value [3] was under 20% and the “binding normalized” value [4] was under 20%.
